Experiment [1] relates to H3K9me3. Briefly: Immunostaining of H3K9me3 in bMSCs. It is filed as cell-based, bovine. The following applies: bMSCs overexpressing human KDM4A vs retroviral vector control. Here is the method: (§1) Immunostaining: For immunofluorescence, the cells were first fixed in 4% PFA for 15 min at room temperature. Following fixation, the cells were treated with 0.5% Triton X-100 in PBS for 15 min at room temperature for cell membrane permeabilization. After blocking with goat serum (Cell Signaling Technology, Danvers, MA, USA), the cells were incubated in goat serum containing primary antibodies for 2 h at 37° C., followed by secondary antibodies at room temperature for 1 h. Cells were counter-stained with DAPI and imaged under a Nikon fluorescence microscope. Primary antibodies including rabbit anti-OCT4 (Santa Cruz, CA, USA), rabbit anti-SOX2 (Merck Millipore), and mouse anti-NANOG (Merck Millipore) were used at 1:100 dilution while mouse anti-AFP (1:50; Cloud-clone Corp., TX, USA), rabbit anti-TUJ1 (1:500) and mouse anti-SMA (1:400) (Thermo Fisher Scientific) were diluted variously according to their manufacturer's instructions. Alexa Fluor 488 or 594 conjugated goat anti-rabbit or goat anti-mouse secondary antibody (Cell Signaling Technology) were used in 1:1000 dilution. For cell surface marker staining, the cells in different reprogramming conditions were stained with NL557-conjugated TRA-1-60 (1:100), SSEA-3 (1:50; R&D Systems, Minneapolis, MN, USA) and Alexa Fluor 594 conjugated SSEA-4 (1:100; BioLegend, San Diego, CA, USA) according to the manufacturer's protocol.

Experiment [2] relates to H3K9me2. Briefly: Immunostaining of H3K9me2 in bMSCs. It is filed as cell-based, bovine. Particulars: bMSCs overexpressing human KDM4A vs vector control. Here is the method: as §1

B1: KDM4A: human lysine-specific demethylase 4A overexpressed in bMSCs from pMXs retroviral vector (protein, UniProt O75164 2-1064, looked up)
Lysine-specific demethylase 4A: ASESETLNPSARIMTFYPTMEEFRNFSRYIAYIESQGAHRAGLAKVVPPKEWKPRASYDDIDDLVIPAPIQQLVTGQSGLFTQYNIQKKAMTVREFRKIANSDKYCTPRYSEFEELERKYWKNLTFNPPIYGADVNGTLYEKHVDEWNIGRLRTILDLVEKESGITIEGVNTPYLYFGMWKTSFAWHTEDMDLYSINYLHFGEPKSWYSVPPEHGKRLERLAKGFFPGSAQSCEAFLRHKMTLISPLMLKKYGIPFDKVTQEAGEFMITFPYGYHAGFNHGFNCAESTNFATRRWIEYGKQAVLCSCRKDMVKISMDVFVRKFQPERYKLWKAGKDNTVIDHTLPTPEAAEFLKESELPPRAGNEEECPEEDMEGVEDGEEGDLKTSLAKHRIGTKRHRVCLEIPQEVSQSELFPKEDLSSEQYEMTECPAALAPVRPTHSSVRQVEDGLTFPDYSDSTEVKFEELKNVKLEEEDEEEEQAAAALDLSVNPASVGGRLVFSGSKKKSSSSLGSGSSRDSISSDSETSEPLSCRAQGQTGVLTVHSYAKGDGRVTVGEPCTRKKGSAARSFSERELAEVADEYMFSLEENKKSKGRRQPLSKLPRHHPLVLQECVSDDETSEQLTPEEEAEETEAWAKPLSQLWQNRPPNFEAEKEFNETMAQQAPHCAVCMIFQTYHQVEFGGFNQNCGNASDLAPQKQRTKPLIPEMCFTSTGCSTDINLSTPYLEEDGTSILVSCKKCSVRVHASCYGVPPAKASEDWMCSRCSANALEEDCCLCSLRGGALQRANDDRWVHVSCAVAILEARFVNIAERSPVDVSKIPLPRFKLKCIFCKKRRKRTAGCCVQCSHGRCPTAFHVSCAQAAGVMMQPDDWPFVVFITCFRHKIPNLERAKGALQSITAGQKVISKHKNGRFYQCEVVRLTTETFYEVNFDDGSFSDNLYPEDIVSQDCLQFGPPAEGEVVQVRWTDGQVYGAKFVASHPIQMYQVEFEDGSQLVVKRDDVYTLDEELPKRVKSRLSVASDMRFNEIFTEKEVKQEKKRQRVINSRYREDYIEPALYRAIME
On to B1, for which the H3K9me3 by immunostaining result in experiment [1] is recorded as “reduced”. Also, the H3K9me2 by immunostaining entry in experiment [2] was “not”.

Values taken from patent US20250051731A1, “COMPOSITIONS AND METHODS FOR ESTABLISHMENT OF BOVINE-INDUCED PLURIPOTENT STEM CELLS” (University of Connecticut, priority 2021, published 2025).
